In series [1] the test system is GCDNA (DNA, duplex) GCGCGCGCGC
Nature of the series: ITC, one set of sites fit. The note with it: Na+ 100 mM (from the 10 mM Hepes/100 mM NaCl UV and gel buffer; the ITC buffer is only given as Hepes buffer), 25 °C, 500 µM EtBr titrated into 10 µM DNA (strand concentration).

Series [2] relates to ATDNA (DNA, duplex) GCAAATTTGC
Kind of series: ITC, one set of sites fit. The note with it: Na+ 100 mM (from the 10 mM Hepes/100 mM NaCl UV and gel buffer; the ITC buffer is only given as Hepes buffer), 25 °C, 200 µM EtBr titrated into 10 µM DNA (strand concentration).

Series [3] has as its system GCDNA (DNA, duplex) GCGCGCGCGC
Nature of the series: ITC. The note with it: Hepes buffer, 25 °C; 200 µM Net titrated into 10 µM DNA (strand concentration).

Series [4] concerns protamine (sulfate salt) (salmon). Kind of series: ITC. Conditions: ITC in Hepes buffer, 25 C (salt and pH not given in the material), short duplexes 10 uM (strand concentration), protamine 100 uM.
Where [5] appears, read: 20 uM ethidium bromide (EtBr-bound DNA).

For `CC[n+]1c(-c2ccccc2)c2cc(N)ccc2c2ccc(N)cc21`, the values for the KA in series [1] and in series [2] were 145000 M⁻¹ and 165000 M⁻¹, respectively.

With `Cn1cc(NC(=O)c2cc(NC(=O)CN=C(N)N)cn2C)cc1C(=O)NCCC(=N)N`, in series [3], the binding entry was “no”.

For the compound CTDNA (calf thymus DNA), the Ka worked out at 6.36e+07 M⁻¹ in series [4] (60 uM ethidium bromide (EtBr-bound DNA)); 5.54e+07 M⁻¹ in series [4] (60 uM netropsin (Net-bound DNA)); 550000 M⁻¹ in series [4] (no drug, CTDNA titrated into protamine).

For GCAAATTTGC (double strand) [ATDNA], the Ka in series [4] (setting [5]) amounted to 3.9e+06 M⁻¹; in series [4] (20 uM netropsin (Net-bound DNA)), 1.89e+08 M⁻¹; in series [4] (no drug) it was 1.4e+08 M⁻¹.

For GCGCGCGCGC (double strand) [GCDNA], the Ka amounted to 4.5e+06 M⁻¹ in series [4] (setting [5]), 4.5e+07 M⁻¹ in series [4] (20 uM netropsin) and 3.4e+07 M⁻¹ in series [4] (no drug).

The values above are taken from paper PMC6458161 (2019).
